Holding throughout (conditions): 0.1 M McIlvaine buffer pH 4.5, 25 °C, native glycosylated enzyme
Substrate in data set [1]: CCn1c(=NN=c2sc3cc(S(=O)(=O)O)ccc3n2CC)sc2cc(S(=O)(=O)O)ccc21
Description: spectrophotometric oxidation kinetics. It counts as biochemical, Steccherinum ochraceum. An excerpt: (§1) spectrophotometric oxidation kinetics on So3827

Substrate in data set [2]: COc1cc(C=NN=Cc2cc(OC)c(O)c(OC)c2)cc(OC)c1O
Description: spectrophotometric oxidation kinetics. It counts as biochemical, Steccherinum ochraceum.
Excerpt: as §1

Substrate in data set [3]: CCn1c(=NN=c2sc3cc(S(=O)(=O)O)ccc3n2CC)sc2cc(S(=O)(=O)O)ccc21
Description: spectrophotometric oxidation kinetics. It counts as biochemical, Steccherinum ochraceum. An excerpt:
(§2) spectrophotometric oxidation kinetics on So3398
The source holds these as a separate data set.

Substrate in data set [4]: COc1cc(C=NN=Cc2cc(OC)c(O)c(OC)c2)cc(OC)c1O
Description: spectrophotometric oxidation kinetics. Format: biochemical, Steccherinum ochraceum.
Excerpt: as §2
The source holds these as a separate data set.

Substrate in data set [5]: COc1cccc(OC)c1O
Description: spectrophotometric oxidation kinetics. Format: biochemical, Steccherinum ochraceum.
Excerpt: as §2

Substrate in data set [6]: CCn1c(=NN=c2sc3cc(S(=O)(=O)O)ccc3n2CC)sc2cc(S(=O)(=O)O)ccc21
Description: spectrophotometric oxidation kinetics. It counts as biochemical, Steccherinum ochraceum. An excerpt: (§3) spectrophotometric oxidation kinetics on So3622
The source holds these as a separate data set.

Substrate in data set [7]: COc1cc(C=NN=Cc2cc(OC)c(O)c(OC)c2)cc(OC)c1O
Description: spectrophotometric oxidation kinetics. Format: biochemical, Steccherinum ochraceum.
Excerpt: as §3
The source holds these as a separate data set.

Substrate in data set [8]: CCn1c(=NN=c2sc3cc(S(=O)(=O)O)ccc3n2CC)sc2cc(S(=O)(=O)O)ccc21
Description: spectrophotometric oxidation kinetics. Format: biochemical, Steccherinum ochraceum. An excerpt:
(§4) spectrophotometric oxidation kinetics on So2134
The source holds these as a separate data set.

Substrate in data set [9]: COc1cc(C=NN=Cc2cc(OC)c(O)c(OC)c2)cc(OC)c1O
Description: spectrophotometric oxidation kinetics. Format: biochemical, Steccherinum ochraceum.
Excerpt: as §4
The source holds these as a separate data set.

Substrate in data set [10]: COc1cccc(OC)c1O
Put plainly: spectrophotometric oxidation kinetics. It counts as biochemical, Steccherinum ochraceum.
Excerpt: as §4
This is another data set of the same source.

Substrate in data set [11]: CCn1c(=NN=c2sc3cc(S(=O)(=O)O)ccc3n2CC)sc2cc(S(=O)(=O)O)ccc21
Description: spectrophotometric oxidation kinetics. Format: biochemical, Steccherinum ochraceum. An excerpt: (§5) spectrophotometric oxidation kinetics on So3617
The source holds these as a separate data set.

Substrate in data set [12]: COc1cc(C=NN=Cc2cc(OC)c(O)c(OC)c2)cc(OC)c1O
Description: spectrophotometric oxidation kinetics. Format: biochemical, Steccherinum ochraceum.
Excerpt: as §5
The source holds these as a separate data set.

Substrate in data set [13]: CCn1c(=NN=c2sc3cc(S(=O)(=O)O)ccc3n2CC)sc2cc(S(=O)(=O)O)ccc21
Put plainly: spectrophotometric oxidation kinetics. Format: biochemical, Steccherinum ochraceum. An excerpt: (§6) spectrophotometric oxidation kinetics on So3120
This is another data set of the same source.

Substrate in data set [14]: COc1cc(C=NN=Cc2cc(OC)c(O)c(OC)c2)cc(OC)c1O
Description: spectrophotometric oxidation kinetics. It counts as biochemical, Steccherinum ochraceum.
Excerpt: as §6
The source holds these as a separate data set.

Substrate in data set [15]: COc1cccc(OC)c1O
Description: spectrophotometric oxidation kinetics. Format: biochemical, Steccherinum ochraceum.
Excerpt: as §6
This is another data set of the same source.

Substrate in data set [16]: COc1ccccc1O
Description: purified protein.

Substrate in data set [17]: Oc1ccccc1O
Put plainly: spectrophotometric oxidation kinetics. Format: biochemical, Steccherinum ochraceum. An excerpt:
(§7) spectrophotometric oxidation kinetics on So3174

Substrate in data set [18]: CCn1c(=NN=c2sc3cc(S(=O)(=O)O)ccc3n2CC)sc2cc(S(=O)(=O)O)ccc21
Description: spectrophotometric oxidation kinetics. Format: biochemical, Steccherinum ochraceum.
Excerpt: as §7
This is another data set of the same source.

Substrate in data set [19]: COc1cc(C=NN=Cc2cc(OC)c(O)c(OC)c2)cc(OC)c1O
Description: spectrophotometric oxidation kinetics. It counts as biochemical, Steccherinum ochraceum.
Excerpt: as §7
This is another data set of the same source.

Substrate in data set [20]: COc1cccc(OC)c1O
Put plainly: spectrophotometric oxidation kinetics. Format: biochemical, Steccherinum ochraceum.
Excerpt: as §7
The source holds these as a separate data set.

B1: So3827 (Steccherinum ochraceum) (protein)
chain: VQIGPVTDLHITNANIAPDGFTRPAVLAGGTFPGPTISGNTGDNFQITVFNELTETSMLTDTSIHWHGLFQKGTNWADGPAFVTQCPIITGNSFDYNFNVPGQAGTYWYHSHLSTQYCDGLRGPFVVYDPNDPNASLYDVDDDTTIITLADWYHTLAQQEPIGAAITADATLINGLGRSFTNTTASPLSVITVQSGKRYRMRLVSISCDPNYQFSIDGHDMTIIEVDGVNSQQLTVDQIQIFAAQRYSFVLNANQPVGNYWIRAQPNSGGQGFDGGINSAILRYEGATVADPTTSPPTTFTSPLVETNLHPLADLGVPGQPFRGGADDPMVLNLGFANGRFTIDGVSFVPPTVPVLLQILSGAQNAQDLLPAGSVISLPPNSVIEVALPAGAAGGPHPFHLHGHNFAVVQSANNATPNYVNPIWRDTVSIGGTGDNVTIRFTTNNPGPWFLHCHIDWHLEAGFAIVFAEDIPDTASANPVPQAWSDLCPAYDQAHNISTAT
As for B1, in [1], the Km (as a rule, the substrate concentration at which the rate is half of its maximum) is 200 ± 7 µM; the kcat (commonly the number of substrate molecules converted per active site and unit of time at saturation) was 276 ± 31 s⁻¹; the kcat/Km – broadly, the second-order rate constant that governs catalysis at low substrate concentration – came to 1.38e+06 ± 162000 M⁻¹ s⁻¹. Moreover, in [2], the Km stood at 6.7 ± 0.9 µM, the kcat was 113 ± 12 s⁻¹ and the catalytic efficiency (kcat/Km) amounted to 1.69e+07 ± 2.87e+06 M⁻¹ s⁻¹.

B2: So3398 (Steccherinum ochraceum) (protein)
chain: B1 chain
With B2, the Km was found to be 209 ± 27 µM in data set [3], 5.6 ± 0.8 µM in [4] and 17 ± 3 µM in data set [5]. The catalytic constant (kcat) in [3] is 281 ± 26 s⁻¹; in data set [4], 119 ± 11 s⁻¹; in data set [5] it was 152 ± 12 s⁻¹. The catalytic efficiency (kcat/Km) was determined as 1.34e+06 ± 214000 M⁻¹ s⁻¹ in [3], 2.12e+07 ± 3.56e+06 M⁻¹ s⁻¹ in [4] and 8.94e+06 ± 1.52e+06 M⁻¹ s⁻¹ in [5].

B3: So3622 (Steccherinum ochraceum) (protein)
chain: B1 chain
On to B3, for which, in data set [6], the Km is 174 ± 11 µM, the kcat came out at 252 ± 20 s⁻¹ and the kcat/Km was determined as 1.45e+06 ± 147000 M⁻¹ s⁻¹. In data set [7], the Km was 5.5 ± 0.7 µM, the turnover number (kcat) was 83 ± 7 s⁻¹ and the catalytic efficiency (kcat/Km) worked out at 1.51e+07 ± 2.21e+06 M⁻¹ s⁻¹.

B4: So2134 (Steccherinum ochraceum) (protein)
chain: B1 chain
With B4, the Km in data set [8] was 100 ± 6 µM; in [9] it was 3.7 ± 0.5 µM; in [10], 21 ± 2 µM. Further, the kcat was 254 ± 23 s⁻¹ in data set [8], 91 ± 7 s⁻¹ in data set [9] and 166 ± 14 s⁻¹ in data set [10]. Moreover, the kcat/Km in data set [8] is 2.54e+06 ± 276000 M⁻¹ s⁻¹; in data set [9], 2.46e+07 ± 3.93e+06 M⁻¹ s⁻¹; in data set [10], 7.9e+06 ± 1.03e+06 M⁻¹ s⁻¹.

B5: So3617 (Steccherinum ochraceum) (protein)
chain: B1 chain
For the protein B5, in [11], the Michaelis-Menten constant (Km) was 212 ± 10 µM, the kcat came to 228 ± 21 s⁻¹ and the catalytic efficiency (kcat/Km) was 1.08e+06 ± 111000 M⁻¹ s⁻¹. In data set [12], the Km is given as 5.2 ± 0.6 µM, the catalytic constant (kcat) is 89 ± 10 s⁻¹ and the kcat/Km is 1.71e+07 ± 2.69e+06 M⁻¹ s⁻¹.

B6: So3120 (Steccherinum ochraceum) (protein)
chain: B1 chain
Take B6: in [13], the Km worked out at 175 ± 23 µM, the kcat was 325 ± 28 s⁻¹ and the specificity constant (kcat/Km) stood at 1.86e+06 ± 290000 M⁻¹ s⁻¹. For the same protein, in data set [14], the Km stood at 5.4 ± 0.8 µM, the turnover number (kcat) was 105 ± 12 s⁻¹ and the kcat/Km is 1.94e+07 ± 3.62e+06 M⁻¹ s⁻¹. Also, in [15], the Michaelis constant (Km) is listed as 17 ± 3 µM, the kcat is 110 ± 14 s⁻¹ and the kcat/Km turned out to be 6.47e+06 ± 1.27e+06 M⁻¹ s⁻¹.

B7: So3174 (Steccherinum ochraceum) (protein)
chain: B1 chain
On to B7, for which the Km in data set [16] turned out to be 2230 ± 205 µM; in data set [17], 576 ± 86 µM; in data set [18], 81 ± 9 µM; in data set [19] it was 3.8 ± 0.6 µM; in data set [20], 20 ± 2 µM. In addition, the turnover number (kcat) in [16] was 152 s⁻¹; in [17] it was 373 ± 27 s⁻¹; in data set [18], 240 ± 21 s⁻¹; in data set [19], 104 ± 11 s⁻¹; in [20], 101 ± 9 s⁻¹. Moreover, the kcat/Km in data set [16] was 68000 M⁻¹ s⁻¹; in [17], 648000 ± 108000 M⁻¹ s⁻¹; in [18], 2.96e+06 ± 416000 M⁻¹ s⁻¹; in data set [19], 2.74e+07 ± 5.09e+06 M⁻¹ s⁻¹; in data set [20], 5.05e+06 ± 755000 M⁻¹ s⁻¹.

The values above are taken from publication PMC6515407, “Laccases with Variable Properties from Different Strains of Steccherinum ochraceum: Does Glycosylation Matter?” (International Journal of Molecular Sciences, 2019).
